# What was measured:
# [1] = target: Ssp^C A136S-CFN (Synechocystis Species PCC6803 (Ssp)); assay: cell-based or functional assay
# [2] = target: Npu^C-CFN (Nostoc puminciforme PCC73102 (Npu)); assay: cell-based or functional assay
# Npu^C-CFN (Nostoc puminciforme PCC73102 (Npu)), sequence (chain, as listed by the source): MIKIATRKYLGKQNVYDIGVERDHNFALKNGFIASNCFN
substance,measurement,setting,value
"Npu^N (AEY-Npu^N, product of plasmid 2 after cleavage of the His6-SUMO tag)",rate of branch resolution,[1],2 fold
same,"protein trans-splicing half-life (t1/2) at 30° C., in vitro PTS assay",[2],50 s

# — patent publication US20210371467A1
